Here are results for one substance from patent US20250243262A1.

For assay [1], the target named is rPcrV protein (recombinant Pseudomonas PcrV) (Pseudomonas aeruginosa). In words: SPR (Bio-Rad ProteOn XPR36); antibody captured on GLC sensor chip with anti-human IgG, rPcrV injected at multiple concentrations.
For assay [2] the target is unchanged. Description: SPR (Bio-Rad ProteOn XPR36); antibody captured, rPcrV as analyte; table under the sensorgram.
Assay [3] shares this target. Description: SPR (Bio-Rad ProteOn XPR36); antibody captured by anti-human IgG on GLC chip, rPcrV injected.

As for “V2L2-MD (germlined lead optimized V2L2) (antibody)”, in assay [1], the Kd is 0.0456 nM, the koff stood at 4.03e-05 s⁻¹ and the on-rate (kon) was 884000 M⁻¹ s⁻¹. In assay [2], the Kd stood at 0.046 nM, the dissociation rate constant (koff) amounted to 4.03e-05 s⁻¹ and the kon turned out to be 884000 M⁻¹ s⁻¹. Further, the fold increase in Kd over V2L2-GL in assay [3] fell in the range of 2 to 3 fold.

By Kd is commonly meant a measure of binding affinity in units of concentration. Broadly, the koff is the rate constant with which the complex falls apart. Usually kon stands for a measure of how fast the partners come together.
